The values below come from US7582437 (JAPAN SCIENCE AND TECHNOLOGY AGENCY, dated 2009).

Assay [1] concerns the target T1, human TLR3 (human, UniProt O15455 24-904).
T1 construct: whole, on cells; also called human Toll-like receptor 3
Nature of the assay: stated in the description with reference to the Examples (reporter gene assays). On the technique in general: A reporter such as luciferase makes a cellular process visible.

For assay [2], the target named is T1, human TLR3. In words: stated in the description with reference to the Examples (dominant-negative effect in reporter gene assays). How it is done:
By using the gene transfecting cationic lipid "Lipfectamine 2000" reagent (made by Gibco), HEK293 cells in 24-well plates were transfected with (i) 0.1 µg of luciferase-linked NF-κB reporter gene (made by Stratagene) (c.f. FIG. 13(b)) or 0.1 µg of p125.luc reporter plasmid (c.f. FIG. 13(a)), (ii) TICAM-1 TIR (0.1 ng and 10 ng) or a plasmid (0, 0.2 µg, 0.6 µg), the plasmid encoding TICAM-1 TIR mutant TIR P434H of TICAM-1 TIR, and (iii) empty vector, TLR2 (0.1 µg), or TLR3 (0.6 µg).
A total amount (0.8 µg to 1.0 µg) of transfected DNA was adjusted by adding the empty vectors. Moreover, plasmid vector pCMVβ (made by Clontech; 5 ng) was used as an internal control.
Twenty four hours after the transfection, the cells were stimulated for 6 hours with 100 nM of MALP-2 (TLR2 stimulation) or 10 µg/ml of poly (I:C) (TLR3 stimulation), and then lyzed with the lysis buffer (made by Promega). Luciferase activity that indicate the interferon β activation or NF-κB activation caused by stimulation after the transfection in thus prepared lysates were measured according to the manufacturer's instructions. This experiment was repeated three times. Representing values thereof were considered as measurement values. Level of the interferon β activation is illustrated in FIG. 13(a), and level of the NF-κB activation is illustrated in FIG. 13(b).

B1: human TICAM-1 TIR (mutant made of almost only the TIR domain, amino acids 387 to 556 of human TICAM-1) (other)
chain: ESSSEQKFYNFVILHARADEHIALRVREKLEALGVPDGATFCEDFQVPGRGELSCLQDAIDHSAFIILLLTSNFDCRLSLHQVNQAMMSNLTRQGSPDCVIPFLPLESSPAQLSSDTASLLSGLVRLDEHSQIFARKVANTFKPHRLQARKAMWRKEQDTRALREQSQHL
notes: Expressed in HEK293 cells from pEFBOS; also called TIR of TICAM-1; pEFBOS-TICAM-1 (TIR)
As for B1, the binding result in the assay with human TLR3 [1] was “binds”.

B2: dominant-negative mutant P434H of human TICAM-1 TIR (other)
chain: ESSSEQKFYNFVILHARADEHIALRVREKLEALGVPDGATFCEDFQVHGRGELSCLQDAIDHSAFIILLLTSNFDCRLSLHQVNQAMMSNLTRQGSPDCVIPFLPLESSPAQLSSDTASLLSGLVRLDEHSQIFARKVANTFKPHRLQARKAMWRKEQDTRALREQSQHL
notes: Expressed in HEK293 cells from pEFBOS with an initiator Met; also called TIR P434H
As to B2, in the assay with human TLR3 [2], the binding result is recorded as “binds”.
